The record followed here is the supplement of paper PMC5998384.

Data set [1] relates to HeLa Kyoto. Briefly: thermal stability score vs G1/S (z-score of summed log2 fold changes over temperatures); higher = more thermally stable than in G1/S.
Data set [2] has as its system HeLa Kyoto. Briefly: solubility in G1/S (NP-40 vs SDS abundance) (log2 ratio); higher = more soluble. The settings on record: cell cycle stage: G1/S.
The test system of data set [3] is HeLa Kyoto. Briefly: melting temperature (median over replicates), in situ; higher = more thermally stable.
Data set [4] has as its system HeLa Kyoto. Briefly: solubility change mitosis vs G1/S (difference of NP-40 vs SDS log2 ratios) (log2 ratio difference); higher = more soluble in mitosis.
Setting [5] is: cell cycle stage: early G1 (4.5 h after nocodazole release).
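For melting temperature (median over replicates), in situ in this document: HeLa Kyoto cells synchronized by double thymidine or nocodazole block, proteins quantified by TMT10plex mass spectrometry, three independent biological replicates.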
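For solubility change mitosis vs G1/S (difference of NP-40 vs SDS log2 ratios) in this document: synchronized HeLa Kyoto cells (double thymidine block for G1/S, nocodazole release for mitosis), protein amounts in NP-40 versus SDS lysates quantified by mass spectrometry, three biological replicates.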
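For solubility in G1/S (NP-40 vs SDS abundance) in this document: HeLa Kyoto cells arrested at G1/S by double thymidine block, proteins quantified by TMT10plex mass spectrometry in mild NP-40 versus SDS extracts, three biological replicates.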
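For thermal stability score vs G1/S (z-score of summed log2 fold changes over temperatures) in this document: synchronized HeLa Kyoto cells, proteins quantified by TMT10plex mass spectrometry, three biological replicates, mitosis taken 0.5 h after nocodazole release, G1/S directly after double thymidine block.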

Chain of PUDP (chain, as listed by the source): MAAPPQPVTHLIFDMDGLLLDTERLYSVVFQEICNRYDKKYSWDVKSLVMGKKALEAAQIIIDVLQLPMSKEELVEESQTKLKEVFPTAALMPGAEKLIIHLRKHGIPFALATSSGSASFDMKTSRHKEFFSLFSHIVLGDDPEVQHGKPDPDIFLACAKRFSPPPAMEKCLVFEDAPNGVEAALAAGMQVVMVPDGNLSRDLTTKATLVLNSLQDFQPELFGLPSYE

With TRIP11, the thermal stability score in the data set on HeLa Kyoto [1] (setting [5]) came out at 0.295; with HeLa Kyoto [1] (cell cycle stage: mitosis) it was 1.48. For the same substance, in the data set on HeLa Kyoto [2], the “solubility in G1/S (log2)” value came out at 0.34. The results for the melting temperature with HeLa Kyoto [3] (cell cycle stage: G1/S) and in the data set on HeLa Kyoto [3] (cell cycle stage: mitosis) were 49.1 °C and 49 °C, respectively. Further, in the data set with HeLa Kyoto [4], the “solubility change mitosis (log2)” value is -0.135.
As to “MQQDGLGVGTRNGSGKGRSVHPSWPWCAPRPLRYFGRDARARRAQTAAMALLAGGLSRGLGSHPAAAGRDAVVFVWLLLSTWCTAPARAIQVTVSNPYHVVILFQPVTLPCTYQMTSTPTQPIVIWKYKSFCRDRIADAFSPASVDNQLNAQLAAGNPGYNPYVECQDSVRTVRVVATKQGNAVTLGDYYQGRRITITGNADLTFDQTAWGDSGVYYCSVVSAQDLQGNNEAYAELIVLGRTSGVAELLPGFQAGPIEDWLFVVVVCLAAFLIFLLLGICWCQCCPHTCCCYVRCPCCPDKCCCPEALYAAGKAATSGVPSIYAPSTYAHLSPAKTPPPPAMIPMGPAYNGYPGGYPGDVDRSSSAGGQGSYVPLLRDTDSSVASEVRSGYRIQASQQDDSMRVLYYMEKELANFDPSRPGPPSGRVERAMSEVTSLHEDDWRSRPSRGPALTPIRDEEWGGHSPRSPRGWDQEPAREQAGGGWRARRPRARSVDALDDLTPPSTAESGSRSPTSNGGRSRAYMPPRSRSRDDLYDQDDSRDFPRSRDPHYDDFRSRERPPADPRSHHHRTRDPRDNGSRSGDLPYDGRLLEEAVRKKGSEERRRPHKEEEEEAYYPPAPPPYSETDSQASRERRLKKNLALSRESLVV”, the thermal stability score in the data set on HeLa Kyoto [1] (setting [5]) is -3.76; in the data set on HeLa Kyoto [1] (cell cycle stage: mitosis), -1.62. Further, the “solubility in G1/S (log2)” value in the data set with HeLa Kyoto [2] was -0.186. Moreover, the melting temperature worked out at 53.8 °C in the data set on HeLa Kyoto [3] (cell cycle stage: G1/S) and 54.6 °C in the data set on HeLa Kyoto [3] (cell cycle stage: mitosis). Further, the “solubility change mitosis (log2)” value in the data set with HeLa Kyoto [4] came to 0.133.
In the case of “MGDPERPEAAGLDQDERSSSDTNESEIKSNEEPLLRKSSRRFVIFPIQYPDIWKMYKQAQASFWTAEEVDLSKDLPHWNKLKADEKYFISHILAFFAASDGIVNENLVERFSQEVQVPEARCFYGFQILIENVHSEMYSLLIDTYIRDPKKREFLFNAIETMPYVKKKADWALRWIADRKSTFGERVVAFAAVEGVFFSGSFAAIFWLKKRGLMPGLTFSNELISRDEGLHCDFACLMFQYLVNKPSEERVREIIVDAVKIEQEFLTEALPVGLIGMNCILMKQYIEFVADRLLVELGFSKVFQAENPFDFMENISLEGKTNFFEKRVSEYQRFAVMAETTDNVFTLDADF [RRM2B]”, the results for the thermal stability score in the data set on HeLa Kyoto [1] (setting [5]) and in the data set on HeLa Kyoto [1] (cell cycle stage: mitosis) were -1.2 and 0.292, respectively. Besides, the “solubility in G1/S (log2)” value in the data set with HeLa Kyoto [2] amounted to 0.00384. Further, the melting temperature in the data set on HeLa Kyoto [3] (cell cycle stage: G1/S) stood at 56.5 °C; in the data set with HeLa Kyoto [3] (cell cycle stage: mitosis), 54.2 °C. In addition, in the data set with HeLa Kyoto [4], the “solubility change mitosis (log2)” value is -0.132.
For “MTAEDSTAAMSSDSAAGSSAKVPEGVAGAPNEAALLALMERTGYSMVQENGQRKYGGPPPGWEGPHPQRGCEVFVGKIPRDVYEDELVPVFEAVGRIYELRLMMDFDGKNRGYAFVMYCHKHEAKRAVRELNNYEIRPGRLLGVCCSVDNCRLFIGGIPKMKKREEILEEIAKVTEGVLDVIVYASAADKMKNRGFAFVEYESHRAAAMARRKLMPGRIQLWGHQIAVDWAEPEIDVDEDVMETVKILYVRNLMIETTEDTIKKSFGQFNPGCVERVKKIRDYAFVHFTSREDAVHAMNNLNGTELEGSCLEVTLAKPVDKEQYSRYQKAARGGGAAEAAQQPSYVYSCDPYTLAYYGYPYNALIGPNRDYFVKAGSIRGRGRGAAGNRAPGPRGSYLGGYSAGRGIYSRYHEGKGKQQEKGYELVPNLEIPTVNPVAIKPGTVAIPAIGAQYSMFPAAPAPKMIEDGKIHTVEHMISPIAVQPDPASAAAAAAAAAAAAAAVIPTVSTPPPFQGRPITPVYTVAPNVQRIPTAGIYGASYVPFAAPATATIATLQKNAAAAAAMYGGYAGYIPQAFPAAAIQVPIPDVYQTY [RBM47]”, the figures for the thermal stability score in the data set with HeLa Kyoto [1] (setting [5]) and with HeLa Kyoto [1] (cell cycle stage: mitosis) were 0.77 and 1.83, respectively. In addition, the “solubility in G1/S (log2)” value with HeLa Kyoto [2] is -0.0256. The values for the melting temperature with HeLa Kyoto [3] (cell cycle stage: G1/S) and in the data set with HeLa Kyoto [3] (cell cycle stage: mitosis) were 48.2 °C and 47.4 °C, respectively. Moreover, the “solubility change mitosis (log2)” value in the data set on HeLa Kyoto [4] was -0.0191.
As for “MAAAAELSLLEKSLGLSKGNKYSAQGERQIPVLQTNNGPSLTGLTTIAAHLVKQANKEYLLGSTAEEKAIVQQWLEYRVTQVDGHSSKNDIHTLLKDLNSYLEDKVYLTGYNFTLADILLYYGLHRFIVDLTVQEKEKYLNVSRWFCHIQHYPGIRQHLSSVVFIKNRLYTNSH [EEF1E1]”, the thermal stability score in the data set with HeLa Kyoto [1] (setting [5]) was -0.612; with HeLa Kyoto [1] (cell cycle stage: mitosis), -0.172. Moreover, the “solubility in G1/S (log2)” value with HeLa Kyoto [2] was found to be 0.394. In addition, the values for the melting temperature in the data set on HeLa Kyoto [3] (cell cycle stage: G1/S) and in the data set with HeLa Kyoto [3] (cell cycle stage: mitosis) were 48.6 °C and 49.7 °C, respectively. In addition, the “solubility change mitosis (log2)” value with HeLa Kyoto [4] turned out to be 0.0967.
As to PUDP, the thermal stability score stood at 1.26 in the data set on HeLa Kyoto [1] (setting [5]) and 0.384 in the data set with HeLa Kyoto [1] (cell cycle stage: mitosis). Moreover, in the data set on HeLa Kyoto [2], the “solubility in G1/S (log2)” value amounted to 0.454. For the same substance, the melting temperature with HeLa Kyoto [3] (cell cycle stage: G1/S) is 54.5 °C; in the data set with HeLa Kyoto [3] (cell cycle stage: mitosis), 55.5 °C. Moreover, the “solubility change mitosis (log2)” value in the data set with HeLa Kyoto [4] is -0.0216.
